This passage reports Kd results from PMC11309785, “Vaccine priming of rare HIV broadly neutralizing antibody precursors in non-human primates” (Science (New York, N.Y.), 2024).

This test deals with T1, N332-GT5 trimer, C-terminal His-tagged (captured ligand of the SPR) (HIV-1 isolate BG505 (N332-GT5 …, stabilised)).
T1 construct: HIV-1 envelope (Env) of isolate BG505, gp120 part of the germline-targeting trimer N332-GT5, co-expressed with furin; S18, coordinates in PDB 8T4K; HIV-1 envelope (Env) of isolate BG505, gp41 ectodomain part of the trimer N332-GT5; MD65 = MD39 stabilising mutations plus V505T, V513A, V518S, L520D; also called N332-GT5 WT; source: 293F cells, co-transfected with furin, purified (HIS-TRAP, SEC); …
In words: SPR; ProteOn XPR36, HC30M XanTec chip; His-tagged trimer (300 to 400 RU, 1 ug/mL) captured by immobilised rabbit anti-His-tag pAb, Fab flowed as analyte at 30 ul/min for 3 min, 5 min dissociation; 1x HBS-EP+ pH 7.4 with BSA 1 mg/ml; equilibrium or kinetic (Langmuir) fits; highest concentration 2x10^-5 M, approximate upper affinity limit 1.6x10^-11 M. Particulars: both partners purified.

B1: RM_N332_32 Fab (Fab, V domains shown)
VH: QLQLQESGPGLVKPSETLSLTCAVSGGSISDYCWNWIRQPPGKGLEWIGYIGGSSGSTYYNPSLKGRVTISADTSENRFSLKLSSVTAADTAVYYCARSPITVFGVVIFDEYTTGNLDLWGPGTPISISS
VL: DIQMTQSPSSLSASVGDKVTITCHASQDISSWLAWYQQKPGKAPKPLIYYASSLQSGVPSRFSGSGSGTDYTLTITSLQPEDFATYYCQQYDDLPFTFGPGTKLDIK
notes: human Fab heavy chain constant region from the vector pFabCW; human kappa constant region from the vector pCW-CLig-hk; Macaque variable regions on human constant regions; The deposited model may hold the Fv only; also called BG18 type I Fab with kappa light chain; source: FreeStyle 293F or ExpiCHO cells, purified (CaptureSelect CH1-XL)
What is called Kd is a measure of binding affinity in units of concentration. As for B1, the affinity, expressed as Kd, was 0.081 nM.

B2: RM_N332_36 Fab (Fab, V domains shown)
VH: QVTLKESGPALVKPTQTLTLTCTFSGFSLSTNYMGVDWIRQPPGKALEWLARIYWNDDKYYSTSLKSRLTISKDTSKNQVVLTMSNMDPVDTATYYCARVKLSVWGVLQFFEWSDYGLDSWGQGVVVTVSS
VL: SYVLTQPPSVSVSPGQTARITCGADNIGSQSVHWYQQKSPQAPVLVISADTERPSGIPERFSGSNSGNTATLTISGVEAGDEADYYCQVWDSDSKYALFGGGTRLTVL
notes: human Fab heavy chain constant region from the vector pFabCW; human lambda constant region from the vector pCW-CLig-hL2; Macaque variable regions on human constant regions; The deposited model may hold the Fv only; also called BG18 type I Fab with D3-41 in alternate reading frame; source: FreeStyle 293F or ExpiCHO cells, purified (CaptureSelect CH1-XL)
Take B2: the Kd came out at 0.038 nM.
